The values below come from patent US20210163622A1 (FATE THERAPEUTICS, published 2021).

The target of this assay is T1, human MICA on target cells (human, UniProt Q29983 24-383).
T1 sequence (looked up): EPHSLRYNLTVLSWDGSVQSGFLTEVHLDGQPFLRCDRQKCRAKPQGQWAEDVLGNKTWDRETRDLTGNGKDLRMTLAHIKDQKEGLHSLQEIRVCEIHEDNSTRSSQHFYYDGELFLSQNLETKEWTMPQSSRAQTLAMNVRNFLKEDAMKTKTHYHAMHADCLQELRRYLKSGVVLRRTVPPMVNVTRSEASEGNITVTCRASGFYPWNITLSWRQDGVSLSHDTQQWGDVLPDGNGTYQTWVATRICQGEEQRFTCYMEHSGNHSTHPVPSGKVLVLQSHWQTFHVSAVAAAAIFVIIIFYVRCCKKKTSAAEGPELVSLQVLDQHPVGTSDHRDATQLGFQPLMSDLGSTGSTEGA
The assay can be described thus: cell-based or functional assay.

B1: MICA/B CAR (chimeric antigen receptor with a MICA/B-binding scFV; version not stated at the assay) (scFv, V domains shown)
VH: QIQLVQSGPELKKPGETVKVSCKASGYMFTNYAMNWVKQAPEKGLKWMGWINTHTGDPTYADDFKGRIAFSLETSASTAYLQINNLKNEDTATYFCVRTYGNYAMDYWGQGTSVTVSS
VL: DIQMTQTTSSLSASLGDRVTISCSASQDISNYLNWYQQKPDGTVKLLIYDTSILHLGVPSRFSGSGSGTDYSLTISNLEPEDIATYYCQQYSKFPRTFGGGTTLEIK
On to B1, for which the “cytotoxicity of MICA/B CAR+ T cells against MICA+ Nalm6 cells, % Caspase 3/7+ target cells over E:T ratio, 4 h (EC50)” value is approximately 1.9 and the “cytotoxicity of MICA/B CAR+ iNK cells against P815 MICA+ cells, % Caspase 3/7+ target cells over E:T ratio, 4 h (EC50)” value was approximately 5.2.
